Paper PMC7917804

Target: poly(A)-binding protein (PABP), P11940
Experiment: co-immunoprecipitation with anti-FLAG antibody, Western blot quantified with ImageJ
Settings: chain shown with the change, HeLa cells, parent: est. 1.0, read off a plot

Sequence of poly(A)-binding protein (PABP), P11940 (P11940 whole entry): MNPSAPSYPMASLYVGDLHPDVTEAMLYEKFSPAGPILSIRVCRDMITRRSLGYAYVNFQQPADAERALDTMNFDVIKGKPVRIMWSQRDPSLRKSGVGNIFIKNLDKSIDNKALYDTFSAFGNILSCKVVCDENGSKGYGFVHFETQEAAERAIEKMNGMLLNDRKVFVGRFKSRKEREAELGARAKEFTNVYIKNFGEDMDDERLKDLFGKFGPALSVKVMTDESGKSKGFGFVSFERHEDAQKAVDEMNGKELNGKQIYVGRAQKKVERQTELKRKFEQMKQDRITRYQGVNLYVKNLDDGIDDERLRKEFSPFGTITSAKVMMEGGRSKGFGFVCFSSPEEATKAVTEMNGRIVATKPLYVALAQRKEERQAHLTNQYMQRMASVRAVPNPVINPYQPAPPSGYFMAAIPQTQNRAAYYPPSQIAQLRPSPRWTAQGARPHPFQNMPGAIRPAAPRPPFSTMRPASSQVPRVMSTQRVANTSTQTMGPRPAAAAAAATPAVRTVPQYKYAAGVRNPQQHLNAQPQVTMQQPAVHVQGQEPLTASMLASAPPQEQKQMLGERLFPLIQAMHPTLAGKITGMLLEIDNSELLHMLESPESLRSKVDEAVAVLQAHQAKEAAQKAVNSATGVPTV

Binder	response (three independent experiments)	response (two independent experiments)
FLAG-HA-SBP (FHS)-tagged TNRC6A-SD-WT, Q8NDV7-2 S1332D; S1346D (protein) PLHQPAMKSFLDNVMPHTTPELQKGPSPINAFSNFPIGLNSNLNVNMDMNSIKEPQSRLRKWTTVDSISVNTSLDQNSSKHGAISSGFRLEESPFVPYDFMNSSTSPADPPGSIGDGWPRAKDPNGSSSVNWPPEFRPGEPWKGYPNIDPETDPYVTPGSVINNLSINTVREVDHLRDRNSGSSSSLNTTLPSTSAWSSIRASNYNVPLSSTAQSTSARNSDSKLTWSPGSVTNTSLAHELWKVPLPPKNITAPSRPPPGLTGQKPPLSTWDNSPLRIGGGWGNSDARYTPGSSWGESSSGRITNWLVLKNLTPQIDGSTLRTLCMQHGPLITFHLNLPHGNALVRYSSKEEVVKAQKSLHMCVLGNTTILAEFASEEEISRFFAQSQSLTPSPGWQSLGSSQSRLGSLDCSHSFSSRTDLNHWNGAGLSGTNCGDLHGTSLWGTPHYSTSLWGPPSSSDPRGISSPSPINAFLSVDHLGGGGESM	1.1	
FLAG-HA-SBP (FHS)-tagged TNRC6A-SD-WT, Q8NDV7-2 S1616D; S1691D (protein) PLHQPAMKSFLDNVMPHTTPELQKGPSPINAFSNFPIGLNSNLNVNMDMNSIKEPQSRLRKWTTVDSISVNTSLDQNSSKHGAISSGFRLEESPFVPYDFMNSSTSPASPPGSIGDGWPRAKSPNGSSSVNWPPEFRPGEPWKGYPNIDPETDPYVTPGSVINNLSINTVREVDHLRDRNSGSSSSLNTTLPSTSAWSSIRASNYNVPLSSTAQSTSARNSDSKLTWSPGSVTNTSLAHELWKVPLPPKNITAPSRPPPGLTGQKPPLSTWDNSPLRIGGGWGNSDARYTPGSSWGESSSGRITNWLVLKNLTPQIDGSTLRTLCMQHGPLITFHLNLPHGNALVRYSSKEEVVKAQKSLHMCVLGNTTILAEFASEEEISRFFAQSQSLTPDPGWQSLGSSQSRLGSLDCSHSFSSRTDLNHWNGAGLSGTNCGDLHGTSLWGTPHYSTSLWGPPSSSDPRGISSPDPINAFLSVDHLGGGGESM	0.54	
FLAG-HA-SBP (FHS)-tagged full-length TNRC6A, wild type, Q8NDV7-2 S1616D; S1691D (protein) MDADSASSSESERNITIMASGNTGGEKDGLRNSTGLGSQNKFVVGSSSNNVGHGSSTGPWGFSHGAIISTCQVSVDAPESKSESSNNRMNAWGTVSSSSNGGLNPSTLNSASNHGAWPVLENNGLALKGPVGSGSSGINIQCSTIGQMPNNQSINSKVSGGSTHGTWGSLQETCESEVSGTQKVSFSGQPQNITTEMTGPNNTTNFMTSSLPNSGSVQNNELPSSNTGAWRVSTMNHPQMQAPSGMNGTSLSHLSNGESKSGGSYGTTWGAYGSNYSGDKCSGPNGQANGDTVNATLMQPGVNGPMGTNFQVNTNKGGGVWESGAANSQSTSWGSGNGANSGGSRRGWGTPAQNTGTNLPSVEWNKLPSNQHSNDSANGNGKTFTNGWKSTEEEDQGSATSQTNEQSSVWAKTGGTVESDGSTESTGRLEEKGTGESQSRDRRKIDQHTLLQSIVNRTDLDPRVLSNSGWGQTPIKQNTAWDTETSPRGERKTDNGTEAWGSSATQTFNSGACIDKTSPNGNDTSSVSGWGDPKPALRWGDSKGSNCQGGWEDDSAATGMVKSNQWGNCKEEKAAWNDSQKNKQGWGDGQKSSQGWSVSASDNWGETSRNNHWGEANKKSSSGGSDSDRSVSGWNELGKTSSFTWGNNINPNNSSGWDESSKPTPSQGWGDPPKSNQSLGWGDSSKPVSSPDWNKQQDIVGSWGIPPATGKPPGTGWLGGPIPAPAKEEEPTGWEEPSPESIRRKMEIDDGTSAWGDPSKYNYKNVNMWNKNVPNGNSRSDQQAQVHQLLTPASAISNKEASSGSGWGEPWGEPSTPATTVDNGTSAWGKPIDSGPSWGEPIAAASSTSTWGSSSVGPQALSKSGPKSMQDGWCGDDMPLPGNRPTGWEEEEDVEIGMWNSNSSQELNSSLNWPPYTKKMSSKGLSGKKRRRERGMMKGGNKQEEAWINPFVKQFSNISFSRDSPEENVQSNKMDLSGGMLQDKRMEIDKHSLNIGDYNRTVGKGPGSRPQISKESSMERNPYFDKDGIVADESQNMQFMSSQSMKLPPSNSALPNQALGSIAGLGMQNLNSVRQNGNPSMFGVGNTAAQPRGMQQPPAQPLSSSQPNLRAQVPPPLLSPQVPVSLLKYAPNNGGLNPLFGPQQVAMLNQLSQLNQLSQISQLQRLLAQQQRAQSQRSVPSGNRPQQDQQGRPLSVQQQMMQQSRQLDPNLLVKQQTPPSQQQPLHQPAMKSFLDNVMPHTTPELQKGPSPINAFSNFPIGLNSNLNVNMDMNSIKEPQSRLRKWTTVDSISVNTSLDQNSSKHGAISSGFRLEESPFVPYDFMNSSTSPASPPGSIGDGWPRAKSPNGSSSVNWPPEFRPGEPWKGYPNIDPETDPYVTPGSVINNLSINTVREVDHLRDRNSGSSSSLNTTLPSTSAWSSIRASNYNVPLSSTAQSTSARNSDSKLTWSPGSVTNTSLAHELWKVPLPPKNITAPSRPPPGLTGQKPPLSTWDNSPLRIGGGWGNSDARYTPGSSWGESSSGRITNWLVLKNLTPQIDGSTLRTLCMQHGPLITFHLNLPHGNALVRYSSKEEVVKAQKSLHMCVLGNTTILAEFASEEEISRFFAQSQSLTPDPGWQSLGSSQSRLGSLDCSHSFSSRTDLNHWNGAGLSGTNCGDLHGTSLWGTPHYSTSLWGPPSSSDPRGISSPDPINAFLSVDHLGGGGESM		0.89
FLAG-HA-SBP (FHS)-tagged full-length TNRC6A, wild type, Q8NDV7-2 S1332D; S1346D (protein) MDADSASSSESERNITIMASGNTGGEKDGLRNSTGLGSQNKFVVGSSSNNVGHGSSTGPWGFSHGAIISTCQVSVDAPESKSESSNNRMNAWGTVSSSSNGGLNPSTLNSASNHGAWPVLENNGLALKGPVGSGSSGINIQCSTIGQMPNNQSINSKVSGGSTHGTWGSLQETCESEVSGTQKVSFSGQPQNITTEMTGPNNTTNFMTSSLPNSGSVQNNELPSSNTGAWRVSTMNHPQMQAPSGMNGTSLSHLSNGESKSGGSYGTTWGAYGSNYSGDKCSGPNGQANGDTVNATLMQPGVNGPMGTNFQVNTNKGGGVWESGAANSQSTSWGSGNGANSGGSRRGWGTPAQNTGTNLPSVEWNKLPSNQHSNDSANGNGKTFTNGWKSTEEEDQGSATSQTNEQSSVWAKTGGTVESDGSTESTGRLEEKGTGESQSRDRRKIDQHTLLQSIVNRTDLDPRVLSNSGWGQTPIKQNTAWDTETSPRGERKTDNGTEAWGSSATQTFNSGACIDKTSPNGNDTSSVSGWGDPKPALRWGDSKGSNCQGGWEDDSAATGMVKSNQWGNCKEEKAAWNDSQKNKQGWGDGQKSSQGWSVSASDNWGETSRNNHWGEANKKSSSGGSDSDRSVSGWNELGKTSSFTWGNNINPNNSSGWDESSKPTPSQGWGDPPKSNQSLGWGDSSKPVSSPDWNKQQDIVGSWGIPPATGKPPGTGWLGGPIPAPAKEEEPTGWEEPSPESIRRKMEIDDGTSAWGDPSKYNYKNVNMWNKNVPNGNSRSDQQAQVHQLLTPASAISNKEASSGSGWGEPWGEPSTPATTVDNGTSAWGKPIDSGPSWGEPIAAASSTSTWGSSSVGPQALSKSGPKSMQDGWCGDDMPLPGNRPTGWEEEEDVEIGMWNSNSSQELNSSLNWPPYTKKMSSKGLSGKKRRRERGMMKGGNKQEEAWINPFVKQFSNISFSRDSPEENVQSNKMDLSGGMLQDKRMEIDKHSLNIGDYNRTVGKGPGSRPQISKESSMERNPYFDKDGIVADESQNMQFMSSQSMKLPPSNSALPNQALGSIAGLGMQNLNSVRQNGNPSMFGVGNTAAQPRGMQQPPAQPLSSSQPNLRAQVPPPLLSPQVPVSLLKYAPNNGGLNPLFGPQQVAMLNQLSQLNQLSQISQLQRLLAQQQRAQSQRSVPSGNRPQQDQQGRPLSVQQQMMQQSRQLDPNLLVKQQTPPSQQQPLHQPAMKSFLDNVMPHTTPELQKGPSPINAFSNFPIGLNSNLNVNMDMNSIKEPQSRLRKWTTVDSISVNTSLDQNSSKHGAISSGFRLEESPFVPYDFMNSSTSPADPPGSIGDGWPRAKDPNGSSSVNWPPEFRPGEPWKGYPNIDPETDPYVTPGSVINNLSINTVREVDHLRDRNSGSSSSLNTTLPSTSAWSSIRASNYNVPLSSTAQSTSARNSDSKLTWSPGSVTNTSLAHELWKVPLPPKNITAPSRPPPGLTGQKPPLSTWDNSPLRIGGGWGNSDARYTPGSSWGESSSGRITNWLVLKNLTPQIDGSTLRTLCMQHGPLITFHLNLPHGNALVRYSSKEEVVKAQKSLHMCVLGNTTILAEFASEEEISRFFAQSQSLTPSPGWQSLGSSQSRLGSLDCSHSFSSRTDLNHWNGAGLSGTNCGDLHGTSLWGTPHYSTSLWGPPSSSDPRGISSPSPINAFLSVDHLGGGGESM		1.4
